Measured values published in patent publication US10941182 (Amgen, dated 2021).
Starred links: 1 amine or outer side, 2 acyl side, 3 side chain; linkers in the order of their positions; H or OH if unused. Non-standard residues stand in square brackets, D forms with d. *: point of attachment. AC4Abu = α-carboxy-4-aminobutyric acid, O=C(C(CCN[*:1])C(=O)[*:3])[*:2]; Oic = O=C(O)[C@@H]1C[C@@H]2CCCC[C@@H]2N1; Phe(4-Cl) = N[C@@H](Cc1ccc(Cl)cc1)C(=O)O; dPhe(4-Cl) = N[C@H](Cc1ccc(Cl)cc1)C(=O)O; γGlu = O=C(O)[C@H](CCC(=O)[*:2])N[*:1]; 2Nal = N[C@@H](Cc1ccc2ccccc2c1)C(=O)O; NMeR = CN[C@@H](CCCNC(=N)N)C(=O)O; Tridecanoyl = CCCCCCCCCCCCC(=O)*; hArg = N=C(N)NCCCC[C@H](N)C(=O)O; 3Pal = N[C@@H](Cc1cccnc1)C(=O)O; Cha = N[C@@H](CC1CCCCC1)C(=O)O; αMeL = CC(C)C[C@](C)(N)C(=O)O; β3hL = CC(C)C[C@H](N)CC(=O)O; Nle = CCCC[C@H](N)C(=O)O; AEEA = NCCOCCOCC(=O)O; βAla = NCCC(=O)O; BLys = β-lysine

Tests used:
rat APJ receptor = target: T1, rat APJ receptor (rat, UniProt Q9JHG3 1-377); test: cell-based or functional assay
T1 sequence (looked up): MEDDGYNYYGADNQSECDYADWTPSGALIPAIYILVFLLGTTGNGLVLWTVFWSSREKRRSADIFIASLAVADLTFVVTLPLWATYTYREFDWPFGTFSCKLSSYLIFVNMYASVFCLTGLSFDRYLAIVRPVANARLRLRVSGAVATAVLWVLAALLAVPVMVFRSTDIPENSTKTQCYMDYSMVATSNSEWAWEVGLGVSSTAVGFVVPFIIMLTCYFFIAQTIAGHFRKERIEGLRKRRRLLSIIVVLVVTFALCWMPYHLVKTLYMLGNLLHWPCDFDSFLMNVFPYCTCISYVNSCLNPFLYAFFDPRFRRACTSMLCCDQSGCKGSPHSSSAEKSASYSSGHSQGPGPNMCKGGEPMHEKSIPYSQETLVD

human APJ receptor = target: T2, human APJ receptor (human, UniProt P35414 1-380); test: cell-based or functional assay
T2 sequence (looked up): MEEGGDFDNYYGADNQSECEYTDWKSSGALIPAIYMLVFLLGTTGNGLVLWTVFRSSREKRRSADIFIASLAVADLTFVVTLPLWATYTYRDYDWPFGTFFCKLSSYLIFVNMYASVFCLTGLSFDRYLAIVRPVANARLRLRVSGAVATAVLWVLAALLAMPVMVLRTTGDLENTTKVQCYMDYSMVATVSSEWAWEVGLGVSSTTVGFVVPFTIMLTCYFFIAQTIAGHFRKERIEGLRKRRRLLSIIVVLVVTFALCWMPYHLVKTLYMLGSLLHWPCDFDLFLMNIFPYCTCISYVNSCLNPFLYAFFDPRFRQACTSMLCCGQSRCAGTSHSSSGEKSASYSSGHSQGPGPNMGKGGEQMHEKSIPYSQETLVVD

B1: Apelin polypeptide SEQ ID NO: 302 (peptide)
peptide: Tridecanoyl-[γGlu][AEEA][AEEA][dQ][hArg]P[NMeR][β3hL]SHKG[Oic][Nle]P[dPhe(4-Cl)]-OH
SMILES: CCCCCCCCCCCCC(=O)N[C@@H](CCC(=O)NCCOCCOCC(=O)NCCOCCOCC(=O)N[C@H](CCC(N)=O)C(=O)N[C@@H](CCCCNC(=N)N)C(=O)N1CCC[C@H]1C(=O)N(C)[C@@H](CCCNC(=N)N)C(=O)N[C@H](CC(=O)N[C@@H](CO)C(=O)N[C@@H](Cc1c[nH]cn1)C(=O)N[C@@H](CCCCN)C(=O)NCC(=O)N1[C@H](C(=O)N[C@@H](CCCC)C(=O)N2CCC[C@H]2C(=O)N[C@H](Cc2ccc(Cl)cc2)C(=O)O)C[C@@H]2CCCC[C@@H]21)CC(C)C)C(=O)O
- EC50 Rat APJ Receptor (GTPγS assay) (rat APJ receptor): 14.3 nM
- EC50 Human APJ Receptor (GTPγS assay) (human APJ receptor): 16.5 nM

B2: Apelin polypeptide SEQ ID NO: 473 (peptide)
peptide: Tridecanoyl-[γGlu][AEEA][AEEA]Q[hArg]P[NMeR][αMeL]SHKGP[Nle]P[2Nal]-OH
SMILES: CCCCCCCCCCCCC(=O)N[C@@H](CCC(=O)NCCOCCOCC(=O)NCCOCCOCC(=O)N[C@@H](CCC(N)=O)C(=O)N[C@@H](CCCCNC(=N)N)C(=O)N1CCC[C@H]1C(=O)N(C)[C@@H](CCCNC(=N)N)C(=O)N[C@@](C)(CC(C)C)C(=O)N[C@@H](CO)C(=O)N[C@@H](Cc1c[nH]cn1)C(=O)N[C@@H](CCCCN)C(=O)NCC(=O)N1CCC[C@H]1C(=O)N[C@@H](CCCC)C(=O)N1CCC[C@H]1C(=O)N[C@@H](Cc1ccc2ccccc2c1)C(=O)O)C(=O)O
- EC50 Rat APJ Receptor (GTPγS assay) (rat APJ receptor): 0.465 nM
- EC50 Human APJ Receptor (GTPγS assay) (human APJ receptor): 0.099 nM

B3: Apelin polypeptide SEQ ID NO: 305 (peptide)
peptide: Tridecanoyl-[γGlu][AEEA][AEEA][dQ][hArg]P[NMeR][Cha]SH[3Pal]G[Oic][Nle]P[dPhe(4-Cl)]-OH
SMILES: CCCCCCCCCCCCC(=O)N[C@@H](CCC(=O)NCCOCCOCC(=O)NCCOCCOCC(=O)N[C@H](CCC(N)=O)C(=O)N[C@@H](CCCCNC(=N)N)C(=O)N1CCC[C@H]1C(=O)N(C)[C@@H](CCCNC(=N)N)C(=O)N[C@@H](CC1CCCCC1)C(=O)N[C@@H](CO)C(=O)N[C@@H](Cc1c[nH]cn1)C(=O)N[C@@H](Cc1cccnc1)C(=O)NCC(=O)N1[C@H](C(=O)N[C@@H](CCCC)C(=O)N2CCC[C@H]2C(=O)N[C@H](Cc2ccc(Cl)cc2)C(=O)O)C[C@@H]2CCCC[C@@H]21)C(=O)O
- EC50 Rat APJ Receptor (GTPγS assay) (rat APJ receptor): 66.7 nM
- EC50 Human APJ Receptor (GTPγS assay) (human APJ receptor): 78 nM

B4: Apelin polypeptide SEQ ID NO: 306 (peptide)
peptide: Tridecanoyl-[γGlu][AEEA][AEEA][dQ][hArg]P[NMeR][Cha]SH[BLys]G[Oic][Nle]P[dPhe(4-Cl)]-OH
- EC50 Rat APJ Receptor (GTPγS assay) (rat APJ receptor): 136 nM
- EC50 Human APJ Receptor (GTPγS assay) (human APJ receptor): 74.1 nM

B5: Apelin polypeptide SEQ ID NO: 294 (peptide)
peptide: Tridecanoyl-[γGlu][AEEA][AEEA][dQ][hArg]P[NMeR][Cha]SHK[βAla][Oic][Nle]P[dPhe(4-Cl)]-OH
SMILES: CCCCCCCCCCCCC(=O)N[C@@H](CCC(=O)NCCOCCOCC(=O)NCCOCCOCC(=O)N[C@H](CCC(N)=O)C(=O)N[C@@H](CCCCNC(=N)N)C(=O)N1CCC[C@H]1C(=O)N(C)[C@@H](CCCNC(=N)N)C(=O)N[C@@H](CC1CCCCC1)C(=O)N[C@@H](CO)C(=O)N[C@@H](Cc1c[nH]cn1)C(=O)N[C@@H](CCCCN)C(=O)NCCC(=O)N1[C@H](C(=O)N[C@@H](CCCC)C(=O)N2CCC[C@H]2C(=O)N[C@H](Cc2ccc(Cl)cc2)C(=O)O)C[C@@H]2CCCC[C@@H]21)C(=O)O
- EC50 Rat APJ Receptor (GTPγS assay) (rat APJ receptor): 30.7 nM
- EC50 Human APJ Receptor (GTPγS assay) (human APJ receptor): > 4170 nM

B6: Apelin polypeptide SEQ ID NO: 358 (peptide)
peptide: Tridecanoyl-[γGlu][AEEA][AEEA]Q[hArg]P[hArg]LSHKG[Oic][Nle]P[Phe(4-Cl)]-OH
SMILES: CCCCCCCCCCCCC(=O)N[C@@H](CCC(=O)NCCOCCOCC(=O)NCCOCCOCC(=O)N[C@@H](CCC(N)=O)C(=O)N[C@@H](CCCCNC(=N)N)C(=O)N1CCC[C@H]1C(=O)N[C@@H](CCCCNC(=N)N)C(=O)N[C@@H](CC(C)C)C(=O)N[C@@H](CO)C(=O)N[C@@H](Cc1c[nH]cn1)C(=O)N[C@@H](CCCCN)C(=O)NCC(=O)N1[C@H](C(=O)N[C@@H](CCCC)C(=O)N2CCC[C@H]2C(=O)N[C@@H](Cc2ccc(Cl)cc2)C(=O)O)C[C@@H]2CCCC[C@@H]21)C(=O)O
- EC50 Rat APJ Receptor (GTPγS assay) (rat APJ receptor): 0.314 nM
- EC50 Human APJ Receptor (GTPγS assay) (human APJ receptor): 0.285 nM

B7: Apelin polypeptide SEQ ID NO: 304 (peptide)
peptide: Tridecanoyl-[γGlu][AEEA][AEEA][dQ][hArg]P[NMeR][Cha]S[βAla]KG[Oic][Nle]P[dPhe(4-Cl)]-OH
SMILES: CCCCCCCCCCCCC(=O)N[C@@H](CCC(=O)NCCOCCOCC(=O)NCCOCCOCC(=O)N[C@H](CCC(N)=O)C(=O)N[C@@H](CCCCNC(=N)N)C(=O)N1CCC[C@H]1C(=O)N(C)[C@@H](CCCNC(=N)N)C(=O)N[C@@H](CC1CCCCC1)C(=O)N[C@@H](CO)C(=O)NCCC(=O)N[C@@H](CCCCN)C(=O)NCC(=O)N1[C@H](C(=O)N[C@@H](CCCC)C(=O)N2CCC[C@H]2C(=O)N[C@H](Cc2ccc(Cl)cc2)C(=O)O)C[C@@H]2CCCC[C@@H]21)C(=O)O
- EC50 Rat APJ Receptor (GTPγS assay) (rat APJ receptor): 260 nM
- EC50 Human APJ Receptor (GTPγS assay) (human APJ receptor): 139 nM

B8: Apelin polypeptide SEQ ID NO: 293 (peptide)
peptide: Tridecanoyl-[γGlu][AEEA][AEEA][dQ][hArg]P[NMeR][Cha]SH[βAla]G[Oic][Nle]P[dPhe(4-Cl)]-OH
SMILES: CCCCCCCCCCCCC(=O)N[C@@H](CCC(=O)NCCOCCOCC(=O)NCCOCCOCC(=O)N[C@H](CCC(N)=O)C(=O)N[C@@H](CCCCNC(=N)N)C(=O)N1CCC[C@H]1C(=O)N(C)[C@@H](CCCNC(=N)N)C(=O)N[C@@H](CC1CCCCC1)C(=O)N[C@@H](CO)C(=O)N[C@@H](Cc1c[nH]cn1)C(=O)NCCC(=O)NCC(=O)N1[C@H](C(=O)N[C@@H](CCCC)C(=O)N2CCC[C@H]2C(=O)N[C@H](Cc2ccc(Cl)cc2)C(=O)O)C[C@@H]2CCCC[C@@H]21)C(=O)O
- EC50 Rat APJ Receptor (GTPγS assay) (rat APJ receptor): 110 nM
- EC50 Human APJ Receptor (GTPγS assay) (human APJ receptor): 109 nM

B9: Apelin polypeptide SEQ ID NO: 489 (peptide)
peptide: Tridecanoyl-[γGlu][AEEA][AEEA]Q[hArg]P[hArg][Cha]SHKG[Oic][Nle]P[Phe(4-Cl)]-OH
SMILES: CCCCCCCCCCCCC(=O)N[C@@H](CCC(=O)NCCOCCOCC(=O)NCCOCCOCC(=O)N[C@@H](CCC(N)=O)C(=O)N[C@@H](CCCCNC(=N)N)C(=O)N1CCC[C@H]1C(=O)N[C@@H](CCCCNC(=N)N)C(=O)N[C@@H](CC1CCCCC1)C(=O)N[C@@H](CO)C(=O)N[C@@H](Cc1c[nH]cn1)C(=O)N[C@@H](CCCCN)C(=O)NCC(=O)N1[C@H](C(=O)N[C@@H](CCCC)C(=O)N2CCC[C@H]2C(=O)N[C@@H](Cc2ccc(Cl)cc2)C(=O)O)C[C@@H]2CCCC[C@@H]21)C(=O)O
- EC50 Rat APJ Receptor (GTPγS assay) (rat APJ receptor): 3.59 nM
- EC50 Human APJ Receptor (GTPγS assay) (human APJ receptor): 0.601 nM

B10: Apelin polypeptide SEQ ID NO: 359 (peptide)
peptide: Tridecanoyl-[γGlu][AEEA][AEEA]Q[hArg]P[NMeR][αMeL]SHKG[Oic][Nle]P[Phe(4-Cl)]-OH
SMILES: CCCCCCCCCCCCC(=O)N[C@@H](CCC(=O)NCCOCCOCC(=O)NCCOCCOCC(=O)N[C@@H](CCC(N)=O)C(=O)N[C@@H](CCCCNC(=N)N)C(=O)N1CCC[C@H]1C(=O)N(C)[C@@H](CCCNC(=N)N)C(=O)N[C@@](C)(CC(C)C)C(=O)N[C@@H](CO)C(=O)N[C@@H](Cc1c[nH]cn1)C(=O)N[C@@H](CCCCN)C(=O)NCC(=O)N1[C@H](C(=O)N[C@@H](CCCC)C(=O)N2CCC[C@H]2C(=O)N[C@@H](Cc2ccc(Cl)cc2)C(=O)O)C[C@@H]2CCCC[C@@H]21)C(=O)O
- EC50 Rat APJ Receptor (GTPγS assay) (rat APJ receptor): 0.116 nM
- EC50 Human APJ Receptor (GTPγS assay) (human APJ receptor): 0.0529 nM

B11: Apelin polypeptide SEQ ID NO: 460 (peptide)
peptide: XXXQRPRLSHKGPXPF
modifications: {TDA}[AC4Abu][Aeea][Aeea]Q[hArg]P[NMeArg][aMeLeu]SHKGP[Nle]P[4-Cl-F]{COOH}
- EC50 Rat APJ Receptor (GTPγS assay) (rat APJ receptor): 0.0628 nM
- EC50 Human APJ Receptor (GTPγS assay) (human APJ receptor): 0.0347 nM

B12: Apelin polypeptide SEQ ID NO: 303 (peptide)
peptide: Tridecanoyl-[AC4Abu][AEEA][AEEA][dQ][hArg]P[NMeR][Cha][βAla]HKG[Oic][Nle]P[dPhe(4-Cl)]-OH
SMILES: CCCCCCCCCCCCC(=O)NCCC(C(=O)O)C(=O)NCCOCCOCC(=O)NCCOCCOCC(=O)N[C@H](CCC(N)=O)C(=O)N[C@@H](CCCCNC(=N)N)C(=O)N1CCC[C@H]1C(=O)N(C)[C@@H](CCCNC(=N)N)C(=O)N[C@@H](CC1CCCCC1)C(=O)NCCC(=O)N[C@@H](Cc1c[nH]cn1)C(=O)N[C@@H](CCCCN)C(=O)NCC(=O)N1[C@H](C(=O)N[C@@H](CCCC)C(=O)N2CCC[C@H]2C(=O)N[C@H](Cc2ccc(Cl)cc2)C(=O)O)C[C@@H]2CCCC[C@@H]21
- EC50 Rat APJ Receptor (GTPγS assay) (rat APJ receptor): 74.1 nM
- EC50 Human APJ Receptor (GTPγS assay) (human APJ receptor): 79.2 nM
